{
  "source": "paper PMC7789494",
  "proteins": {"B1": {"name": "PcCDHTr (Phanerodontia chrysosporium) (protein)", "chain": "QSASQFTDPTTGFQFTGITDPVHDVTYGFVFPPLATSGAQSTEFIGEVVAPIASKWIGIALGGAMNNDLLLVAWANGNQIVSSTRWATGYVQPTAYTGTATLTTLPETTINSTHWKWVFRCQGCTEWNNGGGIDVTSQGVLAWAFSNVAVDDPSDPQSTFSEHTDFGFFGIDYSTAHSANYQNYLNGDSGNPTTTSTKPTSTSSSVTTGPTVSATPYDYIIVGAGPGGIIAADRLSEAGKKVLLLERGGPSTKQTGGTYVAPWATSSGLTKFDIPGLFESLFTDSNPFWWCKDITVFAGCLVGGGTSVNGALYWYPNDGDFSSSVGWPSSWTNHAPYTSKLSSRLPSTDHPSTDGQRYLEQSFNVVSQLLKGQGYNQATINDNPNYKDHVFGYSAFDFLNGKRAGPVATYLQTALARPNFTFKTNVMVSNVVRNGSQILGVQTNDPTLGPNGFIPVTPKGRVILSAGAFGTSRILFQSGIGPTDMIQTVQSNPTAAAALPPQNQWINLPVGMNAQDNPSINLVFTHPSIDAYENWADVWSNPRPADAAQYLANQSGVFAGASPKLNFWRAYSGSDGFTRYAQGTVRPGAASVNSSLPYNASQIFTITVYLSTGIQSRGRIGIDAALRGTVLTPPWLVNPVDKTVLLQALHDVVSNIGSIPGLTMITPDVTQTLEEYVDAYDPATMNSNHWVSSTTIGSSPQSAVVDSNVKVFGTNNLFIVDAGIIPHLPTGNPQGTLMSAAEQAAAKILALAGGP", "notes": "full two-domain flavocytochrome, native signal peptide (cleaved), untagged, secreted by Trichoderma reesei delta-xyr1; 83 kDa by SDS-PAGE"}},
  "substrate": "O=C1C(Cl)=CC(=Nc2ccc(O)cc2)C=C1Cl",
  "test": "purified protein",
  "format": "biochemical, Phanerodontia chrysosporium",
  "conditions": "500 µM cellobiose, 50 mM sodium acetate pH 4.5, electron acceptor",
  "data": [
    {"protein": "B1", "values": [
      {"measurement": "Km", "value": "4.31 ± 0.11", "unit": "µM"},
      {"measurement": "kcat", "value": "24.4 ± 0.2", "unit": "s⁻¹"},
      {"measurement": "kcat/Km", "value": "5.66e+06 ± 159000", "unit": "M⁻¹ s⁻¹"}
    ]}
  ]
}
